# In a protein production outcome set (Wang et al. 2014):
# Assay: label from the status in PepcDB records
# 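Note: failed if final PepcDB status was selected cloned or expressed and not failed if soluble or beyond.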
row,Sequence,protein production
1,MSLTSTATDSPLKYYDIGLNLTDPMFHGIYNGKQYHPADYVKLLERAAQRHVKNALVTGSSIAESQSAIELVSSVKDLSPLKLYHTIGVHPCCVNEFADASQGDKASASIDNPSMDEAYNESLYAKVISNPSFAQGKLKELYDLMNQQAKPHDTSFRSIGEIGLDYDRFHYSSKEMQKVFFEEQLKISCLNDKLSSYPLFLHMRSACDDFVQILERFVVGFTDEKDTFQLQKLGASSSSGFYKFHPDRKLVVHSFTGSAIDLQKLLNLSPNIFIGVNGCSLRTEENLAVVKQIPTERLLLETDAPWCEIKRTHASFQYLAKYQEVRDFEYPAFKSVKKNKLADKLNAEELYMVKGRNEPCNMEQVAIVVSEVKDVDLATLIDTTWKTTCKIFGEGHHHHHH,not failed
2,MFETFFSTYLSSTIRFLFLLAPFFVVTMFLALTRGLSMAEKTSIIRRACVSAFILGVILFFAGPLLFNAIGITLNSFRIGAGSLLFLTAISLVNSGTRNHATGLPEEDRDDIAVVPLAIPVMIGPATIGAIMVYGAELKAVPEVAGGLLGLVSGLMILAGLLRLSGYLEKALGKTGLNIMSKISGLILSAMAAEIVLTGIAGFIASTSGA,failed
3,MMTGLYLGALAGIAVALAVLMAGAWVVQQLTGNSGWVDTIWTFSLGLTGAVSSLWPIDGAAPDARQWLVAVLVATWSLRLGSHIAARTRHITDDPRYAAYAAQWGTDAPKRMFFFLQNQAYGTIPLVFAIFVAAHAPAGSLRLQDYLGVLILIVAIAGEGLSDAQLKAFRENSANKGKVCDAGLWRWSRHPNYFFQWFGWLAYPVIAIPFAEPLSYLWGYAALLAPLFMYWILVYVTGIPPLEEQMLKSRGDRYRDYQARTSMFFPLPPRRSATL,failed
4,MNFIIEPGSLADIDELERLYDELNDHLSATINYPGWIKGIYPVRENAAAGVDDNSLFVARCDGRIAGSVILDHQPEKAYENIVWKIDADYSYIFVVRTFVVHPSFLQMGVGHALMDFSLELALKSEMKSIRLDVYEKNLPAISLYEKCGFEYIDTVDLGLGHYGLDWFKLYEKVILEHHHHHH,not failed
5,MTSRIQMHRTSPPPAYGTSAPPSGFTLGASTTSTLQRWALPLLLVAFGLFYLLPLTSHGLWIPDETRYAQISQEMLLSGDWVAPHFMGIRYFEKPIAGYWLIAIGQAVFGDNLFGVRIASALSTGLSVLLAYLITRRMWNDPRKSFAAALLYMSFGLIAGQAGYSNLDPQFTLWVNLSLVALWFALDGRSTRERLLAWAGLGVACGMGFMTKGFLAWLLPVLIALPYMIWQRRLGELVRYGLVAVLVAIGISLPWVLSIHAHEPDFWRFFFWHEHIRRFAADNAQHTRPWWFYLPLLVASSLPWAALLPGTFMQAWKDKRQAPTGFLLLWFLLPLAFFSLSRGKLPTYIMPCLLPLAVLMGSALIDRINAIQGRSIRINSLLNLLIGVAAMVALLYIQLTRPVYGHNEMLGLSLVFIMLMGWIIANLLPAARPLQYWPAPALGIWLLVALLPAGMPGFIVHNQMPDQFIKEHIEELRQTKTLLSNDLGAASALAWRLQRPEVTLYNTEGELKYGLAYADSAQRKVSMAEVGQWVSEARKQGSVGVVMRVKDVVESEEVALLPPGGKRYEEGNMLVLILPQSQP,failed
6,MLKLHLSEEERVIFASNLVASKKRFTKMEKGRFGNFLDNAKIISHIINPCLYDVEDATGYFLYSFTLNDERPK,failed
7,MQADPAIRRFAKKRNKRVDRMILDSNYMHTSIDRYFPNESKRRGRPDIIYLLLEMTQESILNHKNQLRTYVHTRNNQVIRISPITRMPKSYNRFIGLFEDLFEKRIITNNGKELLSMEESSLGDLINSIRRDRTILLHPKGEMRKPSEFISNANILIVIGGFSEGDFISDTSFINERYAIFDQELTIWSVANEMVANYERAVGLTLEHHHHHH,not failed
8,MFSFFSRWYQERFSDPQAVTLLAILVGLALVLYFAGGLLAPLLVALVLAFLLEWPVAQMLKLGINRTTAASLVLIIFLGIVVLLTFGLIPSVWRQGVSLMTDLPSMIDKGLQTVQGLATQYPQFISVEQLNLMVAELKKLLDTQHVLDIAKQLIGYSASLLVLMVYAILVPLLVFFFLKDKDQLISGSKRFFPTNRQLARKVWFEMHQQIFNYIRGKVIEIVIVGVASYILFAFMGLSYSALLGVLTGLSVLIPYVGATLVTLPIMLVAFFQWGFSSEFGYLMLGYGIIQALDGNVLVPILFSDAVDLHPVIIIAAVLVFGGLWGVLGVFFAIPLASLVKAVINAWPKTEIEPSASAPPQK,failed
9,MTVVWINGAFGAGKTTTARELIELIPNSTLFDPEVVGGALAHLLPPKRLAEVGDFQDLPIWRRLVIDTAAALLADLGGTLVVPMTLLRQEYRDEIFGGLAARRIEVRHILLAPAETILRERIASREVPRDLPDGELRTRQWSYDHIEPYRAALASWLTADAHPVDTGALTPYEAAARVAEAVGSGAVPACEIVQTPEPTGETVAAGVLLFDERDRVLLVDPTYKPGWEFPGGVVEPGEAPARAGMREVAEETGLSLRDVPALLVVDWEPPAPPAYGGLRLLFDGGRLDAADAGRVLLPGPELRDWRFATEDEAAGLLPPVRYERLRWALRARERGAAHYLEAGTPVGLEHHHHHH,failed
10,MLQLTRVSRLMNIHCGALMNLKQQYQTSLITDALLHSLQTHSVCTTPSETIDSALNSDGMDRQWMSFFYLPELNSTTVNKIKSILSSFTEVGYIEIDQQTHHLAIYHDGPITPIEKNLEKQGIDVVFQQTQANYIPEPIDWKQIKKRHQILSWLFSINLIMLMVTFFTGLIASSTALIALALIIMSDVMIYAMTLYGIHEKQIGLYKFTRVGLYLQISLSLLLILAVIFQSVLQHQPLAQLIILVAALAFFTMLINMYLLIQTQQERPDLLNFRQWFSFYDVMFSFAVIVAGICCLLFDSNWPDITITTLMVFFLLDRSRRVFKKKTSFVVQ,failed
11,SLKLFLFEFATCGERIEDSTAVEGLAMFKSAFDGFKNYYEITGFVRPEFSCLFTLPVDSMDSMEKYLEKSDAFLIIAPEDDFLLYTLTKKAEKYCENLGSSSRAIAVTSDKWELYKKLRGEVQVPQTSLRPLDCKFIIKPRTACAGEGIGFSDEVPDGHIAQEFIEGINLSVSLAVGEDVKCLSVNEQIINNFRYAGAVVPARISDEVKREVVEEAVRAVECVEGLNGYVGVDIVYSDQPYVIEINARLTTPVVAFSRAYGASVADLLAGGEVKHVRRQMVRKSKSAEKPYVSVGDYTLEIIDLD,not failed
12,MAVTDVFARRATLRRSLRLLADFRYEQRDPARFYRTLAADTAAMIGDLWLATHSEPPVGRTLLDVGGGPGYFATAFSDAGVGYIGVEPDPDEMHAAGPAFTGRPGMFVRASGMALPLADDSVDICLSSNVAEHVPRPWQLGTEMLRVTKPGGLVVLSYTVWLGPFGGHEMGLSHYLGGARAAARYVRKHGHPAKNNYGSSLFAVSAAEGLRWAAGTGAALAVFPRYHPRWAWWLTSVPVLREFLVSNLVLVLTP,failed
13,MAAAMVPGRSESWERGEPGRPALYFCGSIRGGREDRTLYERIVSRLRRFGTVLTEHVAAAELGARGEEAAGGDRLIHEQDLEWLQQADVVVAEVTQPSLGVGYELGRAVAFNKRILCLFRPQSGRVLSAMIRGAADGSRFQVWDYEEGEVEALLDRYFEADPPGQVAASPDPTT,failed
14,MELTTDIGGRSAAGVDRAPAGATSRTALWTGRVLSGLAIAFLAFDALGKLMRAAPVLEGSQQLGYPLDTVVGIGATLLACVVLYAIPRTAALGAILLTGYLGGAVATHVRVGNPLFSHVLFPTYVGALIWGGLVLRDRRLLAALLRGRARAAEEEA,failed
15,MSEAPHLTFDLDTPGVSTGHLVVPKGADCEALSLPVFSCNRGEGPSLLITGGNHGNELQGPILARRLVKWLPEAQRCGRIIIVPEINPLAVQAWTRNTPIDGKNLNRVFPGRSDGSVSERIADAISRLLLPVVDTVLDLHSFGPTWDCAPSIISHPIADIDQMTKTVSISKAFKLPVTLLWEHNETDGMFDTLVHRQGKTFICTEFGGGVVSAEALTIYEAGVRNGLIALGLVKGKAEYPTFRQQKTGQTLETTSSDQLKSPSPGIFEPRCSVMDEVEQGDVVGVLHPMGSLSAASIDIRAQSKSTVFAIRSAMYVQGNEEVAILARPLAR,not failed
16,MSRRKKAYQGRKIGSQLLATLESEARKKVGYLQVKTVAEGSNKDYDRTNDFYRGLGFKKLEIFPQLWNPQNPCQILIKKLE,failed
